As a reminder, the Kd is the equilibrium constant for the complex coming apart. A lower Kd goes with higher affinity.

The target in data set [1] is T1, Human Serum Albumin (human, UniProt P02768 25-609).
T1 construct: also called HSA; antigen
The data set can be described thus: see Table 2.

Data set [2] deals with the molecule itself. Kind of data set: analytical ultracentrifugation (sedimentation equilibrium), self-association.
Procedure: In the present examples, three 6-channel equilibrium cells were loaded with 9 protein solutions made by diluting the stock sample 10-, 20-, 30-, 150-, 200-, 300-, 400-, 500, and 600-fold (a range from 540 to 90 μg/ml). Each sample channel was loaded with 120 μl of protein solution and the reference channels were loaded with 125 μl of Dulbecco's phosphate-buffered saline (DPBS) dilution buffer. These cells were then loaded into an AN90-TI rotor and placed into a Beckman Coulter ProteomeLab XL-1 analytical centrifuge equipped with both absorbance and Rayleigh interference (refractive index detection) optical systems. Absorbance scans for the three highest concentrations were recorded at 280 nm; for the lowest concentrations 230 nm was used. The temperature was set at 25° C.

T1 sequence (P02768 25-609 limits assumed): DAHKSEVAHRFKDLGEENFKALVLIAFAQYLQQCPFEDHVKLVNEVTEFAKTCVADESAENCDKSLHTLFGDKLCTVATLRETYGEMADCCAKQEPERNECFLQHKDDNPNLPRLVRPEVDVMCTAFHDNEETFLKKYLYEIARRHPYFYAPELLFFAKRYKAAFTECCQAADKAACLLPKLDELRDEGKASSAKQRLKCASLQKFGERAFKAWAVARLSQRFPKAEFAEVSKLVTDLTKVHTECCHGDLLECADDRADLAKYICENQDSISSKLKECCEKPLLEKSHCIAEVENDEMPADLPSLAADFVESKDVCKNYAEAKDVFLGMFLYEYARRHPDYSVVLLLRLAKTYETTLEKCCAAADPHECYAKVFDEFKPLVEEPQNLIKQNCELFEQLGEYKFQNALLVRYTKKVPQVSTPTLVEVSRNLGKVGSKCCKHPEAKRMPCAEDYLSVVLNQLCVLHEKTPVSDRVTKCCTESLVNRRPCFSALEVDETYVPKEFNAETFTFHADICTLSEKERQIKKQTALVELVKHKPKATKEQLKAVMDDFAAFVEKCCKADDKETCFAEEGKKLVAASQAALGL

B1: DOM7h-8 (other)
VL: DIQMTQSPSSLSASVGDRVTITCRASQSISSYLNWYQQKPGKAPKLLIYRNSPLQSGVPSRFSGSGSGTDFTLTISSLQPEDFATYYCQQTYRVPPTFGQGTKVEIKR
notes: also called DOM7h-8 parent molecule; SD ctrl
With B1, in data set [1], the binding result is given as “binds”. This molecule came in with a Kd in data set [2] of 120 nM.

The record behind these values is patent publication US20130045895A1 (published 2013).
